The values that follow come from patent US20120040474A1 (published 2012).

Assay in all cases: SPR, denatured RNase B
Assay [1] concerns the target T1, PNGase F D60A/E206R mutant (Flavobacterium meningosepticum, UniProt P21163 41-354).
T1 sequence: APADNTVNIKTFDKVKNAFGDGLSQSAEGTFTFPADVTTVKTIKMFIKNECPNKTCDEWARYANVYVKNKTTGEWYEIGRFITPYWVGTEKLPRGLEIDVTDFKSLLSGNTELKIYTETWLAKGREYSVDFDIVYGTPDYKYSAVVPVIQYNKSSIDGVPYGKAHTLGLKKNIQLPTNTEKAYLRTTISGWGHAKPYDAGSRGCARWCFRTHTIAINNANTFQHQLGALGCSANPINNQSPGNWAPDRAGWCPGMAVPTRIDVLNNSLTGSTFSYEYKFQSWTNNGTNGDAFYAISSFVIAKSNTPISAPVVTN

For assay [2], the target named is T2, PNGase F D60A/E206K mutant (Flavobacterium meningosepticum, UniProt P21163 41-354).
T2 sequence: T1 sequence with R206K

Assay [3] deals with T3, PNGase F D60A/R125A mutant (Flavobacterium meningosepticum, UniProt P21163 41-354).
T3 sequence: T1 sequence with R125A, R206E

The target in assay [4] is T4, PNGase F D60A/E206A mutant (Flavobacterium meningosepticum, UniProt P21163 41-354).
T4 sequence: T1 sequence with R206A

The target of the next assay is T5, PNGase F E206A mutant (Flavobacterium meningosepticum, UniProt P21163 41-354).
T5 sequence: T1 sequence with A60D, R206A

Another assay deals with T6, PNGase F D60N mutant (Flavobacterium meningosepticum, UniProt P21163 41-354).
T6 sequence: T1 sequence with A60N, R206E

For assay [5], the target named is T7, PNGase F D60A/D57A mutant (Flavobacterium meningosepticum, UniProt P21163 41-354).
T7 sequence: T1 sequence with D57A, R206E

The target of assay [6] is T8, PNGase F D60A/E206Q mutant (Flavobacterium meningosepticum, UniProt P21163 41-354).
T8 sequence: T1 sequence with R206Q

A further assay concerns the target T9, PNGase F D60A mutant (Flavobacterium meningosepticum, UniProt P21163 41-354).
T9 sequence: T1 sequence with R206E

Where a chain is given by its changes, count along the chain named.

B1: denatured glycoprotein RNase B (enzyme)
chain: KETAAAKFERQHMDSSTSAASSSNYCNQMMKSRNLTKDRCKPVNTFVHESLADVQAVCSQKNVACKNGQTNCYQSYSTMSITDCRETGSSKYPNCAYKTTQANKHIIVACEGNPYVPVHFDASV
modifications: a single N-glycosylation site predominantly occupied by high mannose oligosaccharides; protein denatured
notes: Recognition by the PNGase F mutants and by Con A goes through the N-linked glycan on the protein; also called denatured RNase B; dRNAse B
As usually defined, the Kd is a measure of binding affinity in units of concentration. A higher Kd goes with a looser complex. As to B1, the equilibrium dissociation constant (Kd) stood at 27 µM in [1]; 18 µM in assay [2]; 18 µM in assay [3]; 20 µM in assay [4]; 11 µM with PNGase F E206A mutant; 21 µM with PNGase F D60N mutant. The Kd stood at 7 µM in [5], 18 µM in assay [6] and 11 µM in the assay with PNGase F D60A mutant.
